Measured values published in paper PMC6366944 (Cell, 2018).

T1: EBOV VP30 C-terminal domain, residues 130-272 (Zaire ebolavirus, UniProt Q05323 130-272)
T1 sequence: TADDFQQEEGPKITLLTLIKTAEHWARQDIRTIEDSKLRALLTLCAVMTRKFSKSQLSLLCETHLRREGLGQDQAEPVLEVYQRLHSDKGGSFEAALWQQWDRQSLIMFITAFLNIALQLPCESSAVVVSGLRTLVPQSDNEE

T2: EBOV VP30 residues 89-288 (in vitro pull-down) (Zaire ebolavirus, UniProt Q05323 89-288)
T2 sequence: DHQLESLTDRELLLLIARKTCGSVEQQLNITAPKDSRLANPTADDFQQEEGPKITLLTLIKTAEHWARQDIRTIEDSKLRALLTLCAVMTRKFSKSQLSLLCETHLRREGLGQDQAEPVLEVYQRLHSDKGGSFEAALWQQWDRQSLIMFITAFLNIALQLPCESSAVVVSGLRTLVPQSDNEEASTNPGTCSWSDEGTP


Tests used:
[1] = target: T1, EBOV VP30 C-terminal domain, residues …; test: ITC
[2] = target: T1, EBOV VP30 C-terminal domain, residues …; test: fluorescence polarisation
[3] = target: T2, EBOV VP30 residues 89-288 (in vitro …); test: pull-down

| Binder | Kd [1] [µM] | stoichiometry N [1] | Kd [2] [µM] | binding result [3] |
| --- | --- | --- | --- | --- |
| SLPATPVFVPVPPPPLYPPPPHT [RBBP6 peptide, residues 549-571] | 0.75 ± 0.095 | 1 | 18.1 ± 0.41 |  |
| SLPATPVFVPVPPPPLYPPPPHTLP [MBP fusion of RBBP6 residues 549-573] |  |  |  | binds |
| RTPTVAPPAPVYRDHS [unlabeled NP peptide] |  |  | 89.2 ± 2.26 |  |
